The experiment deals with CXCL12 (UniProt P48061-2 22-89). Put plainly: MST.

The source of these data is doi:10.1101/563890 (bioRxiv, 2019).

CXCL12, sequence (P48061 22-89): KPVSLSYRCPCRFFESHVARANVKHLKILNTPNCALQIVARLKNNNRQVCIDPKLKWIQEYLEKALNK

B1: 6His-tagged full-length HMGB1 (residues 1-214), labelled with NT647 (natural protein, UniProt P63159 1-215, looked up)
chain: MGKGDPKKPRGKMSSYAFFVQTCREEHKKKHPDASVNFSEFSKKCSERWKTMSAKEKGKFEDMAKADKARYEREMKTYIPPKGETKKKFKDPNAPKRPPSAFFLFCSEYRPKIKGEHPGLSIGDVAKKLGEMWNNTAADDKQPYEKKAAKLKEKYEKDIAAYRAKGKPDAAKKGVVKAEKSKKKKEEEDDEEDEEDEEEEEEEEDEDEEEDDDDE
modifications: non-covalently labelled with the NT647 fluorescence dye
B1 had an equilibrium dissociation constant (Kd) of 4 ± 0.4 µM.
